This is an account of results in the RNAGym collection of RNA variant scans (doi:10.1073/pnas.2313332121).

To fix the notation:
B1: TPR t1 (parent)
chain: GACCAAUCUGCCCUCAGAGCUCGAGAACAUCUUCGGAUGCAGAGGAGGCAGGCUUCGGUGGCGCGAUAGCGCCAACGUCCUCAACCUCCAAUGCAUCCCACCACAUGAUGAUGCCUGAAGAGCCUUGGUUUUUUG

In this series the parent is B1. Nature of the series: polymerase ribozyme fitness, log enrichment relative to wild type (log ratio); higher = more active; in vitro selection for triplet polymerase activity. The procedure, abridged:
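Mutant libraries for each subunit of a heterodimeric triplet polymerase ribozyme were made by PCR and then transcribed. Each library underwent one round of in vitro selection in triplicate: annealing with a biotinylated primer, the partner subunit and triplets, frozen incubation at −7 °C, gel excision of extended constructs, streptavidin-bead capture and RT-PCR. Input and output libraries were Illumina-sequenced, and only genotypes with ≥10 input reads and ≥1 read per output were kept. Fitness is the logarithm, base 2, of genotype enrichment over wild-type enrichment, computed from inverse-variance-weighted replicate averages.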
In the case of GACCAAUCUGCCCUCAGAGAUCGAGAACAUCUUCGGAUGCAGAUGAGGCAGGCUUCGGUGGCGCGAUAGCGCCAACGUCCUCAACCUCCAAUGCAUCCCACCACAUGAUGAUGCCUGAAGAGCCUUGGUUUUUUG [C20A G44U], the “polymerase ribozyme fitness (log ratio)” value was -4.1.
Next, GACCAAUCUGCCCUCAGAGCUCGAGAACAUCUUGGAAUGCAGAGGAGGCAGGCUUCGGUGGCGCGAUAGCGCCAACGUCCUCAACCUCCAAUGCAACCCACCACAUGAUGAUGCCUGAAGAGCUUUGGUUUUUUG [C34G G36A U96A C124U]: -6.45; GACCAAUCUGCCCUCAGAGCUCGAGAACAUCUUCGGAGGCAGAGGAGGCAGGCUUCGGUGGCGCGAUAGCGCCAACGUCCUGAACCUCCAAUGCGUCCCACCACAUGAUGAUGCCUGAAGAGCCUUGGUUUUUUG [U38G C82G A95G]: -2.72.
In the case of GACCAAUCUGCCCUCAGAGCUCGAGAACAUCUUCGGAUGCCGAGGAGGCAGGCUUCGGUGGCGCGAUAGCGACAACGUCCUCAACCUCCAAGGCAUCCCACCACAUGAUGAUGCCUGAAUAGCCUUGGCUUUUUG [A41C C72A U92G G120U U129C] it was -2.57.
Next, GACCAAUCUGCCCUCAGAGCUCGAGAACAUCUUCGGCUGCAGAGGAGGCAGGCUUCGGUGGCGCGAUAGAGCCAACGUCCUCAACCUCCAAUGCAUCCCACCACAUGAUGAUGCCUGAAGAGCCUUGGUUUUUUG [A37C C70A]: -1.82; GACCAAUCUGCCCUCAGAGCUCGAGAACAUCUUCGGAUGCAGAGGAGGCAGGCUUCGGUGGCGCGAUAGCGCCAACGUCCUCAACCUCCAAUGCAUCCCACCACAUGAUGAUGCCUGAAGAGCCUUGGUUACUUG [U131A U132C]: 0.142.
In the case of GACCAAUCUGCCCUCUAAGAUCGAGAACAUCUUCGGAUGCAGAGGAGGAAGGCUUCGGUGGCGCGAUAGCGCUAACGUCCUCAACCUCCAAUGCAUCCCACCACAUGAUGAUGCCUGAAGAGCCUUGGUUUUUUG [A16U G17A C20A C49A C73U], the “polymerase ribozyme fitness (log ratio)” value was -4.77.
Next, GACCUAUCUGCCCUCAGAGCUCGAGAACAUCUUCGGAUGCAGAGGAGGCAGGCUUCGGUGGCGCGAUAGCUCCAACGUCCUCAACCUCCAAUGCAUCCCACCACAUGAUGAUGCCUGAAGAGCCUUGGUUUUUUG [A5U G71U]: -0.497; GACCAAUCUGCCCUCAGAGCUCGAGAACAUCUUCGGAUGCAGAGGAGGCAGGCUUCGGUGGCGCGAUAGCGCCAACGUCCUCAACAUCCAAUGCAUCCCACCACAUGAUGACGCCUGAAGAGCCUUGGUUUUUUG [C86A U112C]: -0.51.
Next, GACCAAUUUGCCCUCAGAGCUCGAGUACAUCUUCGGAUGCAGAGGAGGCAGGCUUCGGUGGUGCGAUAGCGCCAACGUCCUCAACCUCCAAUACAUCCCACCACAUGAUGAUGCCUGAAGAGCCUUGGUUUUUUG [C8U A26U C62U G93A]: -2.86; GACCAAUCUGCCCUCAGAGCUGGAGAACAUCUUCGGAUGCAGAGGAGGCAGGCUUCGGUGGCGCGAUAGCGCAAACGUCCUCAACCUCCAAUGCAUCCCACCACAUGAUGAUGCCUGAAGAGCCUUGGUUUUUUG [C22G C73A]: -3.17; GACCAAUGUGCCCUCAGAGCUCGAGAACAUCUUCGGAUGCAGAGGAGGCAGGCUUCGGUGGCGCGAUAGCGCCAACGUCCUCAACCUCCAAUGCAUCCCACCACAUGAUGAUGCCUGAAGAGCCAUGGUUUUUUG [C8G U125A]: 0.0447.
Next, GACCAAUCUGCCCUAAGAGCUCGAGAACAUCUUCGGAUGCAGAGGAGGCAGGCUUCGGUGGCGCGAUAGCGCCAACGUCCUCAACCUCCAAUGCAUCCCACCACAUGAUGAUGCCAGAAGAGCCUUGGUUUUUUG [C15A U116A]: -4.69; GACCAAUCUGCCUUCAGAGCUCGAGAACAUCUUCGGAUGCAGAGGAGGCAGGCUUCGGUGGCGCGAUAGCGCCAACGUCCUCAACCUCCAAUGCAUCCCAUCACAUGAUGAUGCCUGAAGAGCCUUGGUUUUUUG [C13U C101U]: -0.0534.
Regarding GACCAAUCUGCCCUCAGAGCUCGAGAACAUCUUCGGAUGCAGAGGAGGCAGGCUUCGGUGGCGCGAUAGCGCCAACGUACUCUACCUCCAAUGCAUCCCACCACAUGAUGAUGCCUGAAGAGCCUUGGUUUUUUG [C79A A83U], the “polymerase ribozyme fitness (log ratio)” value was -3.6.
For the variant GACCAAUAUGCCCUCAGAGCUCGAGAACAUCUUCGGAUACAGAGGAGGCAGGCUUCGGUGGCGCGAUAGCGCCAACGUUCUCAACCUCCAAUGCAUCCCACCACAUGAUGAUGCCUGAAGAGCCUUGGUUUUUUG [C8A G39A C79U], the “polymerase ribozyme fitness (log ratio)” value came out at 0.0227.
Next, GACCAAUCUGCCCUCAGAGCUCGAGAACAUCUUCGGAUGCAGAGGAGGCAGGUUUCGGUGGCGCGAUAGCGACAACGUCCUCAACCUCCAAUGCAUCCCACCACAUGAUGAUGCCUGAAGAGCCUUGGUAUUUUG [C53U C72A U130A]: -0.183; GACCAGUCUGCCCUCAGAGCUCGAGAACAUCUUCGGAUGCAGAGGAGGCAGUCUUCGGUGGCGCGAUAGCGCCAACGUCCUCAACCUCCAAUGCAUCCCACCACAUGAUGAUGCCUGAAGAGCCUUGGUUUUUUG [A6G G52U]: -1.27.
Take GACCAAUCUGCCCUCAGAGCUCGAGAACAUCUUCGGAUGCAGAUGAGGCAGGAUUCGGUGGCGCGAUACCGCCAACGUCCUCAACCUCCAAUGCAUCCCACCACUUGAUGAUGCCUGAAGAGCCUUGGUUUUUUG [G44U C53A G69C A105U]: the “polymerase ribozyme fitness (log ratio)” value was -5.22.
In the case of GACCAAUCUGCUCUCAGAGCUCGAGAACUUCUUCGGAUGCAGAGGAGGCAGGCUUGGGUGGCGCGAUAGCGCCAACGUCCUCAACCGCCAAUGCAUCCCACCACAUGAUGAUGCCUGAAGAGCCUUGGUUUUUUG [C12U A29U C56G U87G] it was -2.63; in that of GACCAAUCUGCCCUCAGAGCUCGAGAACAUCUUCGGAUGCAGAGGAGGCAGGCUUCGGUGGCGCGAUAACGCCAACGUCCACAACGUCCAAUGCAUCCCACCACAUGAUGAUGCCUGAAGAGCCUUGGUUUUUUG [G69A U81A C86G], -4.96.
